Data: patent US20230357343A1 (ASHER BIOTHERAPEUTICS, published 2023)

B1: xhCD8-hIL21 v2 (other)
chain: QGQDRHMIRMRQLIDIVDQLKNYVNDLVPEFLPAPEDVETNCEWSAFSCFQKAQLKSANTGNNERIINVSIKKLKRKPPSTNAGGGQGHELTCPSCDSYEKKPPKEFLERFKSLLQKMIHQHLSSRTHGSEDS
VH: QVHLQQSGPELVKPGASVKMSCKTSGYTFTKYTMHWVKQGHEESLEWIGHFNPNNDETKYNQKFTGKATLTVDKSSTTAYMELRSLTSDDSALYYCARDGLGLRLFADWGQGTLITVSA
VL: DIQMTQSPASLSASVGETVTITCGASENIYGALNWYQRKQGKSPQLLIFGATNLADGVSSRFSGSGSDRQYSLKISSLHPDDVATYYCQNILDTPWTFGGGTKLEIK
notes: hIgG1/kappa; IL-21 part on one heavy-chain C-terminus via (G4S)3 linker; also called exemplary IL-21 polypeptide 2
B2: xhCD8-hIL21 v1 (other)
chain: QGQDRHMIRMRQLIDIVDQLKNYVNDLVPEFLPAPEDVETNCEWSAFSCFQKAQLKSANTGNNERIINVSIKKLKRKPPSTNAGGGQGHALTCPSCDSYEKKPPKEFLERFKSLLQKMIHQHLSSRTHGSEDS
VH: QVHLQQSGPELVKPGASVKMSCKTSGYTFTKYTMHWVKQGHEESLEWIGHFNPNNDETKYNQKFTGKATLTVDKSSTTAYMELRSLTSDDSALYYCARDGLGLRLFADWGQGTLITVSA
VL: DIQMTQSPASLSASVGETVTITCGASENIYGALNWYQRKQGKSPQLLIFGATNLADGVSSRFSGSGSDRQYSLKISSLHPDDVATYYCQNILDTPWTFGGGTKLEIK
notes: hIgG1/kappa; also called exemplary IL-21 polypeptide 1
B3: xhCD8-hIL21 v6 (other)
chain: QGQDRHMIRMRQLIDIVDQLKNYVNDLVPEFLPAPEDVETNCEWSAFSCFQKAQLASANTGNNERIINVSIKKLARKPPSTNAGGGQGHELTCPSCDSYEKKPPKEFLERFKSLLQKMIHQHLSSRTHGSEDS
VH: QVHLQQSGPELVKPGASVKMSCKTSGYTFTKYTMHWVKQGHEESLEWIGHFNPNNDETKYNQKFTGKATLTVDKSSTTAYMELRSLTSDDSALYYCARDGLGLRLFADWGQGTLITVSA
VL: DIQMTQSPASLSASVGETVTITCGASENIYGALNWYQRKQGKSPQLLIFGATNLADGVSSRFSGSGSDRQYSLKISSLHPDDVATYYCQNILDTPWTFGGGTKLEIK
notes: hIgG1/kappa; IL-21 part on one heavy-chain C-terminus via (G4S)3 linker; also called exemplary IL-21 polypeptide 6
B4: xhCD8.1-hIL21 v2.7 (other)
chain: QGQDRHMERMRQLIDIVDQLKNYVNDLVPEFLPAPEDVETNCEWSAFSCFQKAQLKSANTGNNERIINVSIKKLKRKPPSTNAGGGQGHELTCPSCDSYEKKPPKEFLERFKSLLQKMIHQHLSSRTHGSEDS
VH: QVQLVQSGAEVKKPGSSVKVSCKASGGTFSSYAISWVRQAPGQGLEWMGGIIPGYATANYAQKFQGRVTITADESTSTAYMELSSLRSEDTAVYYCARDAAGIRLFADWGQGTLVTVSS
VL: DIQMTQSPSSLSASVGDRVTITCRASQSIYGALNWYQQKPGKAPKLLIYGASNLQSGVPSRFSGSGSGTDFTLTISSLQPEDFATYYCQSTYTAPWTFGGGTKVEIK
notes: hIgG1/kappa; IL-21 part on one heavy-chain C-terminus via (G4S)3 linker
B5: xhCD8.1-hIL21 v2.9 (other)
chain: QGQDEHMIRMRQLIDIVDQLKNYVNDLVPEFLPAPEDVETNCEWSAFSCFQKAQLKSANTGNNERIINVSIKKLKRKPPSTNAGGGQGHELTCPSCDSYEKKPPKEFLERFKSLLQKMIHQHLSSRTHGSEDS
VH: QVQLVQSGAEVKKPGSSVKVSCKASGGTFSSYAISWVRQAPGQGLEWMGGIIPGYATANYAQKFQGRVTITADESTSTAYMELSSLRSEDTAVYYCARDAAGIRLFADWGQGTLVTVSS
VL: DIQMTQSPSSLSASVGDRVTITCRASQSIYGALNWYQQKPGKAPKLLIYGASNLQSGVPSRFSGSGSGTDFTLTISSLQPEDFATYYCQSTYTAPWTFGGGTKVEIK
notes: as for B4
B6: xhCD8.1-hIL21 v2.28 (other)
chain: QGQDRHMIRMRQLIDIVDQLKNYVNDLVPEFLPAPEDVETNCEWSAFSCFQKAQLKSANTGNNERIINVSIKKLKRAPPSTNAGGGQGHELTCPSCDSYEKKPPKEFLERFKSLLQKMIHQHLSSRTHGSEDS
VH: QVQLVQSGAEVKKPGSSVKVSCKASGGTFSSYAISWVRQAPGQGLEWMGGIIPGYATANYAQKFQGRVTITADESTSTAYMELSSLRSEDTAVYYCARDAAGIRLFADWGQGTLVTVSS
VL: DIQMTQSPSSLSASVGDRVTITCRASQSIYGALNWYQQKPGKAPKLLIYGASNLQSGVPSRFSGSGSGTDFTLTISSLQPEDFATYYCQSTYTAPWTFGGGTKVEIK
notes: as for B4
B7: xhCD8.1-hIL21 v2.29 (other)
chain: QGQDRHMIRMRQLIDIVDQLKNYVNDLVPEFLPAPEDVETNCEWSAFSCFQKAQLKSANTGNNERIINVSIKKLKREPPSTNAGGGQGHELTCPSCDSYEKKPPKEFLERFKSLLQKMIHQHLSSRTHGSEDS
VH: QVQLVQSGAEVKKPGSSVKVSCKASGGTFSSYAISWVRQAPGQGLEWMGGIIPGYATANYAQKFQGRVTITADESTSTAYMELSSLRSEDTAVYYCARDAAGIRLFADWGQGTLVTVSS
VL: DIQMTQSPSSLSASVGDRVTITCRASQSIYGALNWYQQKPGKAPKLLIYGASNLQSGVPSRFSGSGSGTDFTLTISSLQPEDFATYYCQSTYTAPWTFGGGTKVEIK
notes: as for B4
B8: xhCD8.1-hIL21 v2.30 (other)
chain: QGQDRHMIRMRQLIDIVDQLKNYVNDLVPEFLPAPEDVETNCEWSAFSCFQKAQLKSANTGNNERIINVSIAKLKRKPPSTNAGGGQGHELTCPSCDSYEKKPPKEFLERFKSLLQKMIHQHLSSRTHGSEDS
VH: QVQLVQSGAEVKKPGSSVKVSCKASGGTFSSYAISWVRQAPGQGLEWMGGIIPGYATANYAQKFQGRVTITADESTSTAYMELSSLRSEDTAVYYCARDAAGIRLFADWGQGTLVTVSS
VL: DIQMTQSPSSLSASVGDRVTITCRASQSIYGALNWYQQKPGKAPKLLIYGASNLQSGVPSRFSGSGSGTDFTLTISSLQPEDFATYYCQSTYTAPWTFGGGTKVEIK
notes: as for B4
B9: xhCD8.1-hIL21 v2.31 (other)
chain: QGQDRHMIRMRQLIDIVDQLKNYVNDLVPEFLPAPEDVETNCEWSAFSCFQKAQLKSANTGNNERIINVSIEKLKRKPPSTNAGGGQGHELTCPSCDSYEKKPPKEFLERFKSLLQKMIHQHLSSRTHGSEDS
VH: QVQLVQSGAEVKKPGSSVKVSCKASGGTFSSYAISWVRQAPGQGLEWMGGIIPGYATANYAQKFQGRVTITADESTSTAYMELSSLRSEDTAVYYCARDAAGIRLFADWGQGTLVTVSS
VL: DIQMTQSPSSLSASVGDRVTITCRASQSIYGALNWYQQKPGKAPKLLIYGASNLQSGVPSRFSGSGSGTDFTLTISSLQPEDFATYYCQSTYTAPWTFGGGTKVEIK
notes: as for B4
B10: xhCD8.1-hIL21 v2.32 (other)
chain: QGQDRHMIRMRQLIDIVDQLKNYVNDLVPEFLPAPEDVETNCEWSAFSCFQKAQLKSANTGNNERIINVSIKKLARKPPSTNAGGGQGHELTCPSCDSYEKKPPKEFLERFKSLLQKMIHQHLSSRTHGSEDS
VH: QVQLVQSGAEVKKPGSSVKVSCKASGGTFSSYAISWVRQAPGQGLEWMGGIIPGYATANYAQKFQGRVTITADESTSTAYMELSSLRSEDTAVYYCARDAAGIRLFADWGQGTLVTVSS
VL: DIQMTQSPSSLSASVGDRVTITCRASQSIYGALNWYQQKPGKAPKLLIYGASNLQSGVPSRFSGSGSGTDFTLTISSLQPEDFATYYCQSTYTAPWTFGGGTKVEIK
notes: as for B4

Each binder was assayed against T1, Human IL-21R (Biolegend, Catalog No. 773104) (human, UniProt Q9HBE5 20-232, limits assumed) (assay: SPR 37 C).
T1 construct: Bought protein; also called IL-21 receptor
T1 sequence (Q9HBE5 20-232 limits assumed): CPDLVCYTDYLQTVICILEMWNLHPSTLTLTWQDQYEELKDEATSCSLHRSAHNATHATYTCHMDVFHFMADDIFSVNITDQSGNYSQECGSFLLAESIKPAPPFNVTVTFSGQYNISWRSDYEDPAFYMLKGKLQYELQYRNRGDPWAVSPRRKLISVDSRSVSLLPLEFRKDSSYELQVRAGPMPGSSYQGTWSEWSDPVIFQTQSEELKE

Binder	fold difference in IL-21R affinity against wild type IL-21 [fold]
B1	≤ 2
B2	≤ 2
B3	~3

Each binder was assayed against recombinant human IL-21R, extracellular domain fused to 8xHistidine tag (generated in house) (human, UniProt Q9HBE5 20-232) (assay: SPR 37 C, Fc-captured fusion).
recombinant human IL-21R, extracellular domain fused to 8xHistidine tag (generated in house), sequence (Q9HBE5 other isoform, or with tags, fused parts or gaps limits assumed): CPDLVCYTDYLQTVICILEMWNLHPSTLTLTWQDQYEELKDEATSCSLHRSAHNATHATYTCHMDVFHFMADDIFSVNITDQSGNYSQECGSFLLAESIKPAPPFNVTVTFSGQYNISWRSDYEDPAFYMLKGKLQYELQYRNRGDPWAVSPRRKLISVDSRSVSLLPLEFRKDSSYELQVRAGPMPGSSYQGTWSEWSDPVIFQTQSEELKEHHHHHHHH

Binder	Kd [nM]
B4	156
B5	420
B6	0.693
B7	2.8
B8	0.419
B9	3.4
B10	0.236

Each binder was assayed against T1, Human IL-21R (Biolegend, Catalog No. …) (assay: SPR 37 C, Fc-captured fusion;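 also: biacore SPR with anti-human IgG Fc surface and blank flow cell as reference, 10 min dissociation, double-referenced, 1:1 Langmuir fit with mass transport, triplicate runs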).

Binder	Kd [nM]	koff [s⁻¹]	kon [M⁻¹ s⁻¹]
B1	0.122	0.0011	8.9e+06
B2	0.117	0.00097	8.3e+06
B3	0.478	0.0025	5.2e+06
